For 22 molecules, He/Con_2b and He/Con_1a results are on record in patent US20150344570A1 (published 2015).

To fix the notation:
T1: FcγRIIb extracellular domain with C-terminal His tag (human, UniProt P31994 43-217)
T1 construct: extracellular domain; expressed in FreeStyle293 cells; analyte in Biacore; also called FcgRIIb; 2b
T1 sequence (looked up): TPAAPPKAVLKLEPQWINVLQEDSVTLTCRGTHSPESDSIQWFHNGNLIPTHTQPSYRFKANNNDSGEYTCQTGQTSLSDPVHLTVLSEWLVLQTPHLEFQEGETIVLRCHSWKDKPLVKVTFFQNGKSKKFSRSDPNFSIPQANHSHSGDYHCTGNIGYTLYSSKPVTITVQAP

B1: GpH7-A5/GpH7-B3 variant S298_11K/GpL16-k0 (antibody, human IgG1, kappa)
heavy 1: not shown
heavy 2: not shown
light: DIVMTQSPLSLPVTPGEPASISCQASESLVHSNRNTYLHWYLQKPGQSPQLLIYKVSNRFSGVPDRFSGSGSGTDFTLKISRVEAEDVGVYYCSQNTHVPPTFGQGTKVEIERTVAAPSVFIFPPSDEQLKSGTASVVCLLNNFYPREAKVQWKVDNALQSGNSQESVTEQDSKDSTYSLSSTLTLSKADYEKHKVYACEVTHQGLSSPVTKSFNRGEC
notes: He Ab; IgG1, mutation in one H chain
B2: GpH7-A5/GpH7-B3 variant Q295_13S/GpL16-k0 (antibody, human IgG1, kappa)
heavy 1: not shown
heavy 2: not shown
light: B1 light
notes: as for B1
B3: GpH7-A5/GpH7-B3 variant Y296_02A/GpL16-k0 (antibody, human IgG1, kappa)
heavy 1: not shown
heavy 2: not shown
light: B1 light
notes: as for B1
B4: GpH7-A5/GpH7-B3 variant S298_15Y/GpL16-k0 (antibody, human IgG1, kappa)
heavy 1: not shown
heavy 2: not shown
light: B1 light
notes: as for B1
B5: GpH7-A5/GpH7-B3 variant Q295_10E/GpL16-k0 (antibody, human IgG1, kappa)
heavy 1: not shown
heavy 2: not shown
light: B1 light
notes: as for B1
B6: GpH7-A5/GpH7-B3 variant S298_09D/GpL16-k0 (antibody, human IgG1, kappa)
heavy 1: not shown
heavy 2: not shown
light: B1 light
notes: as for B1
B7: GpH7-A5/GpH7-B3 variant Y296_04F/GpL16-k0 (antibody, human IgG1, kappa)
heavy 1: not shown
heavy 2: not shown
light: B1 light
notes: as for B1
B8: GpH7-A5/GpH7-B3 variant Y296_03V/GpL16-k0 (antibody, human IgG1, kappa)
heavy 1: not shown
heavy 2: not shown
light: B1 light
notes: as for B1
B9: GpH7-A5/GpH7-B3 variant S298_03V/GpL16-k0 (antibody, human IgG1, kappa)
heavy 1: not shown
heavy 2: not shown
light: B1 light
notes: as for B1
B10: GpH7-A5/GpH7-B3 variant S324_07I/GpL16-k0 (antibody, human IgG1, kappa)
heavy 1: not shown
heavy 2: not shown
light: B1 light
notes: as for B1
B11: GpH7-A5/GpH7-B3 variant S298_16H/GpL16-k0 (antibody, human IgG1, kappa)
heavy 1: not shown
heavy 2: not shown
light: B1 light
notes: as for B1
B12: GpH7-A5/GpH7-B3 variant S298_18N/GpL16-k0 (antibody, human IgG1, kappa)
heavy 1: not shown
heavy 2: not shown
light: B1 light
notes: as for B1
B13: GpH7-A5/GpH7-B3 variant Q295_14T/GpL16-k0 (antibody, human IgG1, kappa)
heavy 1: not shown
heavy 2: not shown
light: B1 light
notes: as for B1
B14: GpH7-A5/GpH7-B3 variant Q295_11K/GpL16-k0 (antibody, human IgG1, kappa)
heavy 1: not shown
heavy 2: not shown
light: B1 light
notes: also called He Ab Q295_11K
B15: GpH7-A5/GpH7-B3 variant Q295_15Y/GpL16-k0 (antibody, human IgG1, kappa)
heavy 1: not shown
heavy 2: not shown
light: B1 light
notes: also called He Ab Q295_15Y
B16: GpH7-A5/GpH7-B3 variant Q295_09D/GpL16-k0 (antibody, human IgG1, kappa)
heavy 1: not shown
heavy 2: not shown
light: B1 light
notes: also called He Ab Q295_09D
B17: GpH7-A5/GpH7-B3 variant Q295_16H/GpL16-k0 (antibody, human IgG1, kappa)
heavy 1: not shown
heavy 2: not shown
light: B1 light
notes: also called He Ab Q295_16H
B18: GpH7-A5/GpH7-B3 variant P329_02A/GpL16-k0 (antibody, human IgG1, kappa)
heavy 1: not shown
heavy 2: not shown
light: B1 light
notes: also called He Ab P329_02A
B19: GpH7-A5/GpH7-B3 variant P271_15Y/GpL16-k0 (antibody, human IgG1, kappa)
heavy 1: not shown
heavy 2: not shown
light: B1 light
notes: also called He Ab P271_15Y
B20: GpH7-A5/GpH7-B3 variant P271_16H/GpL16-k0 (antibody, human IgG1, kappa)
heavy 1: not shown
heavy 2: not shown
light: B1 light
notes: also called He Ab P271_16H
B21: GpH7-A5/GpH7-B3 variant P329_01G/GpL16-k0 (antibody, human IgG1, kappa)
heavy 1: not shown
heavy 2: not shown
light: B1 light
notes: also called He Ab P329_01G
B22: GpH7-A5/GpH7-B3 variant P271_14T/GpL16-k0 (antibody, human IgG1, kappa)
heavy 1: not shown
heavy 2: not shown
light: B1 light
notes: also called He Ab P271_14T

T3 sequence (P12314 16-292): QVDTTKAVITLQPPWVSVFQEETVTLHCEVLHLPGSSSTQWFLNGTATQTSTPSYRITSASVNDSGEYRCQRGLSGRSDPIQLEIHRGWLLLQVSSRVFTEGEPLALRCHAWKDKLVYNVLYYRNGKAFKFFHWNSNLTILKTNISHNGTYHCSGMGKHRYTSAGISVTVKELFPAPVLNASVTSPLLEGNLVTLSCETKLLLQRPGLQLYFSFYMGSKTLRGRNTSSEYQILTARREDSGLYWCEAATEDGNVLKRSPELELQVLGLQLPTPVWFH

One assay deals with T1, FcγRIIb extracellular domain with …. The assay can be described thus: SPR (Biacore), captured antibody, FcγR as analyte; relative binding. (In SPR one partner is held on a chip, and binding of the other changes the refractive index at the surface.)
For the molecule B1, the He/Con_2b is 61.3 % of HeCon Ab (GpH7-A5/GpH7-B3/GpL16-k0 = 100).
With B2, the He/Con_2b is 56.9 % of HeCon Ab (GpH7-A5/GpH7-B3/GpL16-k0 = 100).
Still for that read-out and setting: next, B3: 82 % of HeCon Ab (GpH7-A5/GpH7-B3/GpL16-k0 = 100); B4: 61.4 % of HeCon Ab (GpH7-A5/GpH7-B3/GpL16-k0 = 100); B5: 94.8 % of HeCon Ab (GpH7-A5/GpH7-B3/GpL16-k0 = 100).
The same measure, in the same setting: as for B6, the figure is 48.3 % of HeCon Ab (GpH7-A5/GpH7-B3/GpL16-k0 = 100).
Turning to B7, the He/Con_2b is 99.2 % of HeCon Ab (GpH7-A5/GpH7-B3/GpL16-k0 = 100).
The same measure, in the same setting: as for B8, the figure is 79.3 % of HeCon Ab (GpH7-A5/GpH7-B3/GpL16-k0 = 100); as for B9, 64.5 % of HeCon Ab (GpH7-A5/GpH7-B3/GpL16-k0 = 100).
The same measure, in the same setting: as for B10, the figure is 95.7 % of HeCon Ab (GpH7-A5/GpH7-B3/GpL16-k0 = 100).
On the same count and under the same terms, as for B11, the figure is 63.5 % of HeCon Ab (GpH7-A5/GpH7-B3/GpL16-k0 = 100); as for B12, 48.1 % of HeCon Ab (GpH7-A5/GpH7-B3/GpL16-k0 = 100).
Take B13: the He/Con_2b was 66.8 % of HeCon Ab (GpH7-A5/GpH7-B3/GpL16-k0 = 100).

In another assay the target is T2, FcγRIa extracellular domain with C-terminal His tag (human, UniProt P12314 16-292).
T2 construct: extracellular domain; expressed in FreeStyle293 cells; analyte in Biacore; also called FcgRI; 1a
T2 sequence (P12314 16-292): as above
The description is as above.
In the case of B1, the He/Con_1a is 109 % of HeCon Ab (GpH7-A5/GpH7-B3/GpL16-k0 = 100).
On the same count and under the same terms, as for B2, the figure is 102 % of HeCon Ab (GpH7-A5/GpH7-B3/GpL16-k0 = 100).
Still for that read-out and setting: as for B3, the figure is 103 % of HeCon Ab (GpH7-A5/GpH7-B3/GpL16-k0 = 100).
On the same count and under the same terms, next, B4: 107 % of HeCon Ab (GpH7-A5/GpH7-B3/GpL16-k0 = 100).
For the molecule B5, the He/Con_1a is 103 % of HeCon Ab (GpH7-A5/GpH7-B3/GpL16-k0 = 100).
In the case of B6, the He/Con_1a was 106 % of HeCon Ab (GpH7-A5/GpH7-B3/GpL16-k0 = 100).
Same read-out and setting: as for B7, the figure is 104 % of HeCon Ab (GpH7-A5/GpH7-B3/GpL16-k0 = 100).
For the molecule B8, the He/Con_1a is 104 % of HeCon Ab (GpH7-A5/GpH7-B3/GpL16-k0 = 100).
Still for that read-out and setting: as for B9, the figure is 110 % of HeCon Ab (GpH7-A5/GpH7-B3/GpL16-k0 = 100).
B10: the He/Con_1a was 102 % of HeCon Ab (GpH7-A5/GpH7-B3/GpL16-k0 = 100).
Take B11: the He/Con_1a was 109 % of HeCon Ab (GpH7-A5/GpH7-B3/GpL16-k0 = 100).
Same read-out and setting: next, B12: 108 % of HeCon Ab (GpH7-A5/GpH7-B3/GpL16-k0 = 100); B13: 103 % of HeCon Ab (GpH7-A5/GpH7-B3/GpL16-k0 = 100).

The next assay has as its target T3, FcγRIa (human, UniProt P12314 16-292).
T3 construct: extracellular domain; also called FcgRI; 1a
The assay can be described thus: SPR (Biacore); He Ab relative to HeCon Ab = 100. The gist of the method:
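Interaction measured at 25° C with HBS-EP+ as running buffer. Each antibody is held on an antigen-peptide surface and exposed to FcγR solution; surfaces are reused after a 10 mM glycine-HCl, pH 1.5 wash.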
For B14, the He/Con_1a is 101 % of control.
Still for that read-out and setting: as for B15, the figure is 102 % of control.
On the same count and under the same terms, as for B16, the figure is 100 % of control; as for B17, 102 % of control; as for B18, 102 % of control.
B19: the He/Con_1a is 103 % of control.
Still for that read-out and setting: next, B20: 102 % of control.
On the same count and under the same terms, next, B21: 101 % of control; B22: 102 % of control.
